These are literature values, as cited in paper PMC8348223.

For orientation: Kd means the concentration at which binding is half-saturated.

One data set deals with Bcl-XL (UniProt Q07817).
The target of a further data set is Bax (UniProt Q07812).
Bax, sequence (Q07812 whole entry): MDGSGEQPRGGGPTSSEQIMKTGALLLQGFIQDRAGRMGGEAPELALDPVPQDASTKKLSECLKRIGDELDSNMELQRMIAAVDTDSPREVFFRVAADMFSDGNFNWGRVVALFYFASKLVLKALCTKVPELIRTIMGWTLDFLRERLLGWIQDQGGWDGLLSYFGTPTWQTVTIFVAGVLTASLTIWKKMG

tBid, sequence (P55957 61-195): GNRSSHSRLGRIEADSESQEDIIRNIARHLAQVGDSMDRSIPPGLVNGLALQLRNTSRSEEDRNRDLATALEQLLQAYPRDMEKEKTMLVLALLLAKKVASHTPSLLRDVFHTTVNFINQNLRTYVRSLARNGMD
Bcl-XL, sequence (Q07817 whole entry): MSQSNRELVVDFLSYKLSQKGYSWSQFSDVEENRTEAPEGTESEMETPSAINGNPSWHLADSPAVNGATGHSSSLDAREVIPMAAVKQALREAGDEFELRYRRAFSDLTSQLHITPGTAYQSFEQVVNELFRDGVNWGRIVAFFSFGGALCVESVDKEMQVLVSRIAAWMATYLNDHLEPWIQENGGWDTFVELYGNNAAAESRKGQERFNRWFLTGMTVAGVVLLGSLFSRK

Take tBid (from UniProt P55957): the Kd with Bcl-XL is 1 nM; in the data set with Bax, 20 nM.
